This experiment deals with Fhb7. Description: crystal structure.

Fhb7 (enzyme) displayed a stoichiometry N of 2.
